# Patent US20220056517A1 (OXFORD NANOPORE TECHNOLOGIES, published 2022)
# No end group written: not given here. *: point of attachment. NH(CH2)5NH2 = NCCCCCN*
# T1: CsgG Y51A/F56Q/K94Q/R97W/R192D-del(V105-I107), Strep-tagged (E. coli, UniProt P0AEA2 16-277)
# T1 construct: Oligomeric CsgG pore; also called CsgG mutant with altered constriction; not shown: Strep tag
# T1 chain: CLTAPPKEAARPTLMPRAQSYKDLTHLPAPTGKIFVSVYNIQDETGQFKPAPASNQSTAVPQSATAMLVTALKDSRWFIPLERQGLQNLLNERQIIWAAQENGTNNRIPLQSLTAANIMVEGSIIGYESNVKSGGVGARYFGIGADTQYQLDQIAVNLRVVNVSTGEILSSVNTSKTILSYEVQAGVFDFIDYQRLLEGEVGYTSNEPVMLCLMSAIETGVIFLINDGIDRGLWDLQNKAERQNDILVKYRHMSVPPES
# T2: CsgG Y51A/F56Q/N91R/K94Q/R97W-del(V105-I107) pore containing the C terminal strep tag (E. coli, UniProt P0AEA2 16-277)
# T2 construct: Oligomeric CsgG pore; not shown: C-terminal Strep tag
# T2 chain: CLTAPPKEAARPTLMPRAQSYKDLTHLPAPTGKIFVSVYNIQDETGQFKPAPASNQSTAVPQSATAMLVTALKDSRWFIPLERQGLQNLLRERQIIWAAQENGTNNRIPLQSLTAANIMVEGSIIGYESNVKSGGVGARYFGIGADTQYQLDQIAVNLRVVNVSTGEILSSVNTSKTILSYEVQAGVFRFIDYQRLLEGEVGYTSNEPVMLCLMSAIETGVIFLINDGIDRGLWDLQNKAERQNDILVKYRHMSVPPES
# T3: CsgG Y51A/N55V/F56Q/N91R/K94Q/R97W-del(V105-I107) pore containing the C terminal strep tag (E. coli, UniProt P0AEA2 16-277)
# T3 construct: Oligomeric CsgG pore; also called Y51A/F56Q/N55V/N91R/K94Q/R97W-del(V105-I107); not shown: C-terminal Strep tag
# T3 chain: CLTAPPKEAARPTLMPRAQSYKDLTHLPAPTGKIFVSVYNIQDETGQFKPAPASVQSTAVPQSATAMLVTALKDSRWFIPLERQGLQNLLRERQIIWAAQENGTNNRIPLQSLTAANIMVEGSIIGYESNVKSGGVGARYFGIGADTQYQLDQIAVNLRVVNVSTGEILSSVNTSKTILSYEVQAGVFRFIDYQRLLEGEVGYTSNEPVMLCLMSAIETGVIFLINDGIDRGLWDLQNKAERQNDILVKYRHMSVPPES
# T4: CsgG Y51T/N55V/F56Q/N91R/K94Q/R97W-del(V105-I107) pore containing the C terminal strep tag (E. coli, UniProt P0AEA2 16-277)
# T4 construct: not shown: C-terminal Strep tag
# T4 chain: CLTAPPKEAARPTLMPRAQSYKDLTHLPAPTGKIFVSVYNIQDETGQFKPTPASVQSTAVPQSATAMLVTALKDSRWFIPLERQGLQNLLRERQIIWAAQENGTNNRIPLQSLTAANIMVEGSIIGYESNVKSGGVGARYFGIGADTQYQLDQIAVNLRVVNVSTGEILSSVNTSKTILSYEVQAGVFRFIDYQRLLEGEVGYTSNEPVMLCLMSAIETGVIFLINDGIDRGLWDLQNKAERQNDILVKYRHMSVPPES
# T5: CsgG Y51A/N55I/F56Q/N91R/K94Q/R97W-del(V105-I107) pore containing the C terminal strep tag (E. coli, UniProt P0AEA2 16-277)
# T5 construct: also called Y51A/N551/F56Q/N91R/K94Q/R97W-del(V105-I107) (sic); not shown: C-terminal Strep tag
# T5 chain: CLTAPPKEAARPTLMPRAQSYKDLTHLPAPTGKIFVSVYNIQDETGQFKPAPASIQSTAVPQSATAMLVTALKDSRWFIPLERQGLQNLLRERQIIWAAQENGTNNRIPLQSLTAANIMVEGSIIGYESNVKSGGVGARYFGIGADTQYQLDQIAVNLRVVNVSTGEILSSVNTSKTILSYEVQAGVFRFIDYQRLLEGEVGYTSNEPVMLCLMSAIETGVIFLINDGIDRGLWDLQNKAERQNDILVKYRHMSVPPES
# T6: CsgG Y51A/F56A/N91R/K94Q/R97W-del(V105-I107) pore containing the C terminal strep tag (E. coli, UniProt P0AEA2 16-277)
# T6 construct: not shown: C-terminal Strep tag
# T6 chain: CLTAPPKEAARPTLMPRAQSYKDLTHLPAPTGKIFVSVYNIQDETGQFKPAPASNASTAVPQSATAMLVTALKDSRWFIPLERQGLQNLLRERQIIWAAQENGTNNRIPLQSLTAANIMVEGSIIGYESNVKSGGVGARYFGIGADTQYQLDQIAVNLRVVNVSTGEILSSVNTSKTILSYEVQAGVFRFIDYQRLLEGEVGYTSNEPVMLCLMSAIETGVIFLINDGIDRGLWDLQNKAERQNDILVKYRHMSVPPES
# T7: CsgG Y51S/N55V/F56Q/N91R/K94Q/R97W-del(V105-I107) pore containing the C terminal strep tag (E. coli, UniProt P0AEA2 16-277)
# T7 construct: also called Y515/N55V/F56Q/N91R/K94Q/R97W-del(V105-I107) (sic); not shown: C-terminal Strep tag
# T7 chain: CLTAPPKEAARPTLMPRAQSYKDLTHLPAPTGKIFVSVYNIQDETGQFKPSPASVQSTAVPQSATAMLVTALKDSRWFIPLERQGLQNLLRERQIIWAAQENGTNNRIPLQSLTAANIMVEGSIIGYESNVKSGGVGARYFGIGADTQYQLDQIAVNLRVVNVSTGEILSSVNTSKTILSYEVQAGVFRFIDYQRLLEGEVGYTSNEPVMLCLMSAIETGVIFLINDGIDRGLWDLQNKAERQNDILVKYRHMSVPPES
# B1: E. coli CsgG (wild-type) fused C-terminally to a Strep-II tag, outer membrane pore (other)
# chain: CLTAPPKEAARPTLMPRAQSYKDLTHLPAPTGKIFVSVYNIQDETGQFKPYPASNFSTAVPQSATAMLVTALKDSRWFIPLERQGLQNLLNERKIIRAAQENGTVAINNRIPLQSLTAANIMVEGSIIGYESNVKSGGVGARYFGIGADTQYQLDQIAVNLRVVNVSTGEILSSVNTSKTILSYEVQAGVFRFIDYQRLLEGEVGYTSNEPVMLCLMSAIETGVIFLINDGIDRGLWDLQNKAERQNDILVKYRHMSVPPES
# modifications: N-terminal lipidation of mature CsgG (Cys at the N-terminal position)
# notes: Nonameric pore; dimers of nonamers also seen; also called CsgG-Strep; CsgG-strep; not shown: C-terminal Strep-II tag
# Key:
# [1] = biological target: B1; assay: in vitro reconstitution (2:1 molar ratio), StrepTactin pull down, native PAGE with fluorescence
# [2] = biological target: T1, CsgG …; assay: as above
# [3] = biological target: T2, CsgG …; assay: co-expression, purification, TEV cleavage; DNA translocation current recording
# [4] = biological target: the molecule itself; assay: size exclusion chromatography (Superose 6); pore-pore dimer
# [5] = biological target: B1; assay: co-expression, Strep affinity purification, anti-His dot blot
# [6] = biological target: the molecule itself; assay: size exclusion chromatography (S200 increase) of Strep- and ion-exchange-purified CsgG pore; pore-pore dimer
# [7] = biological target: B1; assay: cryo-EM of co-purified or in vitro reconstituted CsgG:CsgF particles
# [8] = biological target: T3, CsgG …; assay: in vitro reconstitution; DNA translocation current recording
# [9] = biological target: T4, CsgG …; assay: panel B; in vitro reconstitution; DNA translocation current recording
# [10] = biological target: T5, CsgG …; assay: panel C; in vitro reconstitution; DNA translocation current recording
# [11] = biological target: T6, CsgG …; assay: panel D; in vitro reconstitution; DNA translocation current recording
# [12] = biological target: T7, CsgG …; assay: panel F; in vitro reconstitution; DNA translocation current recording
# [13] = biological target: T3, CsgG …; assay: reconstitution with synthetic peptide, electrophysiology
binder,measurement,setting,value
GTMTFQFRNPNFGGNPNNGAFLLNSAQAQNSYKD-{NH(CH2)5NH2-Alexa594} (also called CsgF N-terminal peptide; FCP) [Alexa 594-labelled synthetic CsgF peptide corresponding to the first 34 residues of mature CsgF],binding result,[1],binds
same,binding result,[2],binds
"GTMTFQFRNPNFGGNPNNGAFLLNSAQAQNSYKDPENLYFQ (also called CsgF truncated protein; No mutations at 17 position of CsgF) [CsgF truncated at position 35 by TEV protease cleavage, with ENLYFQ left at the cleavage site]",binding result,[3],binds
"GTMTFQFRNPNFGGNPSNGAFLLNSAQAQNSYKDPENLYFQ (also called N175 mutation in CsgF (sic, N17S)) [CsgF N17S truncated at position 35 by TEV protease cleavage, with ENLYFQ left at the cleavage site]",binding result,[3],binds
B1,binding result,[4],binds
CsgF 20:64 peptide with C-terminal 6xHis (from pNA100) (first 45 residues of mature CsgF; also called CsgF fragment 1-64; CsgF 1-64) peptide: GTMTFQFRNPNFGGNPNNGAFLLNSAQAQNSYKDPSYNDDFGIETHHHHHH,binding result,[5],binds
"Pro-CP1-Eco-(WT-Y51A/F56Q/D149N/E185N/E201N/E203N-StrepII(C)) CsgG pore (other, The entry already holds the mutations and the StrepII tag; also called Pro-CP1-Eco-(Mutant-StrepII(C)); monomeric pore) CLTAPPKEAARPTLMPRAQSYKDLTHLPAPTGKIFVSVYNIQDETGQFKPAPASNQSTAVPQSATAMLVTALKDSRWFIPLERQGLQNLLNERKIIRAAQENGTVAINNRIPLQSLTAANIMVEGSIIGYESNVKSGGVGARYFGIGANTQYQLDQIAVNLRVVNVSTGEILSSVNTSKTILSYNVQAGVFRFIDYQRLLNGNVGYTSNEPVMLCLMSAIETGVIFLINDGIDRGLWDLQNKAERQNDILVKYRHMSVPPESSAWSHPQFEK",binding result,[6],binds
"E. coli CsgF (mature) with C-terminal 6x histidine tag (other, also called CsgF-His; CsgF-his) GTMTFQFRNPNFGGNPNNGAFLLNSAQAQNSYKDPSYNDDFGIETPSALDNFTQAIQSQILGGLLSNINTGKPGRMVTNDYIVDIANRDGQLQLNVTDRKTGQTSTIQVSGLQNNSTDFHHHHHH",binding result,[7],binds
GTMTFQFRNPNFGGNPSNGAFLLNSAQAQNSYKDP (also called CsgF-N175-(1-35) (sic)) [CsgF-N17S-(1-35) peptide],binding result,[8],binds
same,binding result,[9],binds
same,binding result,[10],binds
same,binding result,[11],binds
same,binding result,[12],binds
GTMTFQFRNPNFGGNPVNGAFLLNSAQAQNSYKDP [CsgF-N17V-(1-35) peptide],binding result,[8],binds
GTMTFQFRNPNFGGNPNNGAFLLNSAQAQN (Range counted on mature CsgF; also called mature peptide of CsgF 1:30) [CsgF-(1-30) synthetic peptide],binding result,[13],binds
GTMTFQFRNPNFGGNPNNGAFLLNSAQAQ [CsgF-(1-29) synthetic peptide],binding result,[13],binds
